Source: patent US20240343803A1 (SHANDONG SIMCERE BIOPHARMACEUTICAL, published 2024)

T1: human PVRIG on FlpinCHO-PVRIG cells (human, UniProt Q6DKI7 41-326)
T1 construct: whole, on cells; also called FlpinCHO-hPVRIG; FlpinCHO-human PVRIG
T1 sequence (looked up): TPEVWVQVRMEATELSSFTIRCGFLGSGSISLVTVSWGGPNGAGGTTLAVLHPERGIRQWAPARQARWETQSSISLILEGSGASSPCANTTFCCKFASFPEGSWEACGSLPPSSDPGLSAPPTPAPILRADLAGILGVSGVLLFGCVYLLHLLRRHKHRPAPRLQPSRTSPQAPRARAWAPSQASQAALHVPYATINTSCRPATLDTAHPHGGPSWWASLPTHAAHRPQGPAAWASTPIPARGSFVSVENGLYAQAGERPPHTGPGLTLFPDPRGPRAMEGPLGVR

T2: human PVRIG-his (AcroBiosystems, Cat NO. PVG-H52H4) (human, UniProt Q6DKI7 41-171, limits assumed)
T2 construct: treated as the same protein; also called human PVRIG-His protein; Human PVRIG-His, Acro C227P1-9ARF1-T4
T2 sequence (looked up): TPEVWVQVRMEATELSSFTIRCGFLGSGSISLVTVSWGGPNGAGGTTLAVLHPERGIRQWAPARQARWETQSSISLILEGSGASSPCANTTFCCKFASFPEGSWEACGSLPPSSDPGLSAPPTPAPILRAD

T3: human TIGIT ECD-his (fusion protein of extracellular domain of human TIGIT and His-tag) (human)
T3 construct: entry includes the signal peptide, limits not readable here
T3 chain: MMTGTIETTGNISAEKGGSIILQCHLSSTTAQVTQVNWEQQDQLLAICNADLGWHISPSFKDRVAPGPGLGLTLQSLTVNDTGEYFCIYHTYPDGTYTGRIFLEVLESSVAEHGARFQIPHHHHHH

T4: human TIGIT ECD-mFc (fusion protein of extracellular domain of human TIGIT and mouse IgG2a Fc fragment) (human)
T4 chain: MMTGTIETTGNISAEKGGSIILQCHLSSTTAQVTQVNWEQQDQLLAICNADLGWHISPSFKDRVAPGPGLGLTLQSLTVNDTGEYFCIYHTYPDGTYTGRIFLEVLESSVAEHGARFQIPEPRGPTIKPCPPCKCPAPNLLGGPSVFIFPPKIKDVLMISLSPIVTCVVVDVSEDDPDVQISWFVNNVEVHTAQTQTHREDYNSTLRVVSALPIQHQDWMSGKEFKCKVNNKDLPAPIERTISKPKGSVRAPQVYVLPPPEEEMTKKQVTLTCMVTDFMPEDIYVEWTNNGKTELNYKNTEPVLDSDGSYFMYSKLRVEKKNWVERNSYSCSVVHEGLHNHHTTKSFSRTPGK

B1: PVRIG-A105 (VHH)
VHH: EVQLVESGGGLVQAGGSLRLSCAASGRTFDRHTMTWFRQAPGKEREFVATASRIPGDTYYSHSVKGRFTISRDNAKNTVYLQLNNLKPEDTAVYYCAATSAYCSEVDCYEKGSWYDNWGQGIQVTVSS
notes: tested as VHH-hinge-CH2-CH3 (human IgG1-Fc); not shown: human IgG1 hinge-CH2-CH3
B2: RG6058-hIgG1 (antibody, V domains shown)
VH: EVQLQQSGPGLVKPSQTLSLTCAISGDSVSSNSAAWNWIRQSPSRGLEWLGKTYYRFKWYSDYAVSVKGRITINPDTSKNQFSLQLNSVTPEDTAVFYCTRESTTYDLLAGPFDYWGQGTLVTVSS
VL: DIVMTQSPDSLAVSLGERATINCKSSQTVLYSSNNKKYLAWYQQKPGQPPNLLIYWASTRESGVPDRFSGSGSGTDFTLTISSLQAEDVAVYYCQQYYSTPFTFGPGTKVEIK
notes: human IgG1 format by its name; also called Roche RG6058; control antibody RG6058

Legend:
[1] = molecular target: T1, human PVRIG on FlpinCHO-PVRIG cells; test: FACS, FlpinCHO-PVRIG cells
Experimental: After discarding the cell culture medium, the cells were rinsed with PBS and digested for 8-10 minutes by adding 1 mL Versene (Gibico, 15040-066). The Ham's F12 (Gibico, 21127-022) complete medium containing 10% FBS was then added to terminate the digestion and acquire cell suspension. After counting with a cell counter (Beckman Coulter, Vi-CELL), an appropriate amount of cell suspension was centrifuged at 350×g to remove the supernatant, washed twice with PBS, stained with Zombie violet (Biolegend, 423114) and incubated at room temperature for 20 minutes. After incubation, the cells were added with staining buffer (2% FBS+PBS) to stop staining, centrifuged at 350×g to remove the supernatant, washed twice and resuspended with staining buffer to a density of 2×10⁶ cells/mL. The cells were plated into a 96-well plate (50 μL of cell suspension per well) for further use. The antibodies were diluted from the highest concentration of 46 nM (two-fold concentration) with staining buffer by 3.3-fold serial dilution. The diluted antibodies were added to the well containing 50 μL of cell suspension. The plate was placed on a microplate shaker at 400 rpm for 1 minute to fully mix the antibodies and cells, and then incubated at 4° C. for 30 minutes. After the incubation, the cells were washed twice with staining buffer (200 μL per well) and centrifuged at 350×g for 5 minutes to discard the supernatant. The PE goat anti-human IgG Fc antibody (ebioscience, 12-4998-82) was diluted 250 times with staining buffer, added into the washed wells (100 μL per well), mixed well, and stained at 4° C. for 30 minutes. After staining, the cells were washed twice with staining buffer, finally resuspended with 200 μL staining buffer and analyzed by flow cytometry (BD, Canto II). The stronger the signal, the stronger the ability of the antibodies binds to PVRIG. An antibody binding curve was drawn with concentration of antibodies as the abscissa and the corresponding Mean Fluorescence Intensity (MFI) as the ordinate. The AUC value of the curve was calculated by using a Four Parameter Logistic Fit (GraphPadPrism9).

[2] = molecular target: T2, human PVRIG-his (AcroBiosystems, Cat …); test: competition ELISA on coated human PVRIG-his; blocked ligand human PVRL2-mFc
Experimental: The ELISA plate was pre-coated with 100 μL/well of 0.5 μg/mL human PVRIG-his protein (AcroBiosystems, Cat NO. PVG-H52H4). The tested anti-PVRIG antibodies were diluted from the highest concentration of 16 nM (two-fold concentration). The diluted antibodies were mixed with 18 ng/ml human PVRL2-mFc (AcroBiosystems, Cat NO. CD2-H5257) in equal volume, added into the plate (100 μL/well), and incubated with shaking at room temperature for 2.0 hours. […] A HRP substrate, TMB (Thermo, Cat NO. 34029) was added into wells after washing the plate again for color development. After adding a termination solution to terminate the reaction, the absorbance value was read by a microplate reader (MD i3×). An inhibiting curve was drawn with concentration of antibodies as the abscissa and the corresponding OD value as the ordinate. The IC50 value was calculated by using a Four Parameter Logistic Fit (GraphPadPrism9). The smaller the IC50 value, the stronger the ability of the antibodies inhibits the binding between PVRIG and PVRL2. The positive and negative controls are the same as in Example 8.
The methods refer to Example 11. The inhibiting activity of the humanized antibodies was normalized to the corresponding parental antibodies. If the percentage value is higher than 100%, the inhibiting effect of humanized antibodies is better than that of parental antibodies.

[3] = molecular target: T3, human TIGIT ECD-his (fusion protein of …); test: BIAcore kinetics
[4] = molecular target: T4, human TIGIT ECD-mFc (fusion protein of …); test: FACS, competition: hTIGIT ECD-mFc to CHO-K1 CD155
Experimental: The collected CHO-K1 CD155 cells were washed once with PBS (Hyclone, CAT #SH30256) and resuspended to 2×10⁵/40 μL with 1% BSA-PBS. The tested antibodies were diluted to 600 nM with 1% BSA-PBS (diluted by 2.5-fold serial dilution for 12 concentration points). The TIGIT ECD-mFc was diluted with 1% BSA-PBS to 6 μg/mL. The 40 μL cells were then mixed with 40 μL diluted antibodies and 40 μL diluted TIGIT ECD-mFc, and then incubated at 4° C. for 60 minutes. […] The cell samples were washed twice with PBS, resuspended to 100 μL/well with 1% BSA-PBS and then analyzed by flow cytometry (BD, Canto II).

Binder	EC50 (read off the curve) [1] [nM]	IC50 (read off the curve) [2] [nM]	Kd [3] [nM]	koff [3] [s⁻¹]	kon [3] [M⁻¹ s⁻¹]	IC50 [4] [nM]
B1	~0.4	~0.7	–	–	–	–
B2	–	–	0.163	0.000147	903000	0.566
